B1: TPR t1 (parent)
chain: GACCAAUCUGCCCUCAGAGCUCGAGAACAUCUUCGGAUGCAGAGGAGGCAGGCUUCGGUGGCGCGAUAGCGCCAACGUCCUCAACCUCCAAUGCAUCCCACCACAUGAUGAUGCCUGAAGAGCCUUGGUUUUUUG

Variants of: B1
Experiment: polymerase ribozyme fitness, log enrichment relative to wild type (log ratio); higher = more active; in vitro selection for triplet polymerase activity
In short: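 PCR was used to build mutant libraries for each subunit of a heterodimeric triplet polymerase ribozyme, which were then transcribed. A single in vitro selection round, in triplicate, used a frozen incubation at −7 °C and recovered extended constructs by gel excision, streptavidin beads and RT-PCR. Fitness is the logarithm of genotype enrichment relative to wild-type enrichment, averaged over replicates with inverse-variance weights. The logarithm is base 2, and after Illumina sequencing only genotypes with ≥10 input reads and ≥1 read per output were kept.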

Variant	polymerase ribozyme fitness (log ratio)
G44A A121C U125G	0.065
G45C C102G A121U U126G G128U	-4.67
G45U C72U U78G C101A G122A	-2.81
G44C C49A C101G U112G U131G	-4.71
G45A G63C	-0.827
G45A G93C	-1.29
G45A G93U	-1.91
A43U A46U G71U U125A U129A	-4.93
G44C C70G	-3.8
G45A U87C C97A	-3.81
G45A C70U	-1.29
G44A G52C G58A G120A	-1.3
G44C G61U C102A	-2.81
G44A A111G	-0.69
G44C C76U U81G	-5.45
G44U C72G	-1.28
G45A A50G G93C	-1.62
G44A C56U C72U G120C U129C	-2.55
A43G C49U U59G C114U	-2.13
G45U C49A U59C C97G	-5.1
G45U A105U	-3.16

Variant	polymerase ribozyme fitness (log ratio)
A43U G77U C88G	-2.17
G45A G51U G58U A74U C80A	-0.751
G44U C56A C102U	-3.03
A43G U54G C89G C94G	-3.3
G45U A100C A111G A121G U125C	-1.08
A43C U55C U130G	-2.82
G44C G61C	-3.07
G45U C97U U112A	-0.0204
G45A A74U U112G	-0.353
A43G C114U	-1.57
G45U G51U A118G G120U	-7.09
A43U C73U	-0.963
A43U C73G	-2.69
A43U C73A	-1.5
G45C G48C C53G G107A A121G	-5.84
G44A C101U	-1.1
G44A C101A	-2.48
G44A A121G	1.53
G44A G69U U81A	-0.353
G45A A74G C115G G127C	-4.14
G45A A50C	-1.09

Variant	polymerase ribozyme fitness (log ratio)
G45A G48A G51U A83U U126G	-5.24
A43U G48A G71U U112A	-1.51
G44C G52A G127A	-3.02
G44U C70U	-2.01
G45A C101A	-1.74
A43G C72A C102U C114G	-4.55
G45C G58A A121C	0.614
A43G C82G C114U A119G U131A	-2.01
G44C G61C U78C C98A G113U	-7.8
A43U G45C C49U G120A	-3.19
G45A G63A U67C C82U A84G U96A C98G C124U	-8.07
G44C C56U C88U C101U G110U	-3.38
G44U G61U A111U	-3.66
G44C A74U	-1.2
G45C C82A C101U	-2.68
G44C C62A G77A U133A	-4.24
G45U G52A C115U G135U	-4.62
A43U U55A G127A	-3.12
G44A C72U G93U C97U U131A	-2.85
G44U A84C A91C	-1.65
G44A C101A U109A	-5.41

Variant	polymerase ribozyme fitness (log ratio)
G45A C79A G113U A118G	-7.04
G44C A84U	-1.11
G44C A84C	-0.969
G44U A46U C70U	-3.55
G45C A100G G120C	-3.59
A43G C124A	0.39
G45C U109C	-4.66
G44C C53U C86A A95U C101U	-3.19
G45U C72G A91C	-2.3
G44U C56U U87C	-1.16
A43U G45C C49U G61U G120A	-1.99
G44U G52A	-0.705
G45C C49U C56G A121C	-0.675
G44A G61C	-3.11
G45C C115U	-3.17
G44C G71A	-1.25
A43G C49A	-2.37
A43G A50U G71U	-5.61
G45U C62U G107U U116C	-5.58
A43U G60A	-1.98
A43U G44A A68U C70A C115A C124A U125C U132A	-6.95

Reference: the RNAGym collection of RNA variant scans (doi:10.1073/pnas.2313332121)
